Experimental data published in patent US20120190612A1, “METHODS OF TREATMENT” (CRC FOR ASTHMA AND AIRWAYS LTD., priority 2009, published 2012).

Experiments:
outer nodule cells (LAM) = test: Tube formation of LAM outer nodule cells; format: cell-based; conditions: 5 hrs
Description: (§1) To assess formation of tubular structures, 48 well plates were coated with 130 μL Matrigel® (BD Bioscience), which was solidified at 37° C. over 45 min. 2×10^4 HMVEC-LLy cells in complete EBM-2 (500 μL) were seeded per well and allowed to attach for 30 min, before lamstatin, tumstatin, CP17 or vehicle was added to the wells. Photos were taken with a Kodak Digital Camera every 2 hrs. Tube formation peaked at 24 hrs, at which time tubular structures were further analysed to determine length (in pixels) and number of tubes per high power field (HPF) area (px^2). The HPF was divided in nine regions of equal size and tubes per region were counted. Mean and SEM were calculated and plotted.
The inventors then analysed tube formation in LAM nodule cells and found only the outer nodule cells responded with pseudo-tube formation. Assay for tube formation was performed as described above in Example 2. Photos were taken at 2, 3, 4, 5 and 24 hrs after seeding. Lamstatin was added directly after seeding to inhibit prior tube formation. Tube formation peaked at 5 hrs and after 24 hrs no tubular structures were observed (both treated and untreated) (data not shown).

fibroblasts (3567) = test: MTT cell viability assay, fibroblasts; format: cell-based; conditions: increasing concentrations, 72 hrs
HMVEC-LLy cells [1] = test: Migration towards a VEGF-D gradient (FluoroBlok transwell); format: cell-based, human; conditions: 24 hrs, n=1; VEGFD alone 42.000 RFU
Description: FluoroBlok BioCoat 24-well inserts (BD Bioscience) were seeded with 4×10^4 HMVEC-LLy cells in 750 μL DMEM with 0.1% BSA, 1% antibiotics and 25 mM HEPES and incubated for 1 hr. The bottom well was filled with 500 μL medium (as described above) with or without 10 ng/mL VEGF-D (R&D Systems) as well as various concentrations of lamstatin, tumstatin, CP17 or vehicle. Additionally, top wells were loaded with inhibitors to match the bottom well concentration. According to manufacturer's instructions cells were allowed to migrate for 24 hrs before bottom media was removed. Thereafter the underside of the transwell with the migrated cells was washed twice with HANKS buffer and placed in a 4 μg/mL calcein (HANKS) solution for 90 min at 37° C. Signal was read with a bottom read fluorescence microplate reader at 485/515 nm (excitation/emission).

[2] = test system: human primary lymphatic endothelial cells (HMVEC-LLy cells); test: MTT cell viability assay, lymphatic endothelial cells; format: cell-based
Description: To determine the function of lamstatin, human primary lymphatic endothelial cells (HMVEC-LLy cells) were exposed to various concentrations of lamstatin and an MTT assay was performed. As a comparison, commercially available tumstatin was used. Specifically, to assess cell viability 4×10^3 HMVEC-LLy cells were seeded per well in 100 μl complete EBM-2 media (with bullet kit, Lonza) and incubated for 2 hrs at 37° C., 5% CO2. After this period lamstatin, tumstatin and respective vehicles (1 nM EDTA, pH 3.0) were prepared in complete EBM-2 as serial dilutions in a separate plate and added. […] After 6 h of further incubation cells were lysed overnight with 10% SDS/0.01 M HCl and measured the following day in a plate reader at 570 nm.
The MTT assay was performed as described above.

integrins α5 and β1 = target: T1, integrins α5 and β1 (Homo sapiens, UniProt P05556+P08648); test: Integrins mediating binding of lymphatic endothelial cells (data not shown); format: cell-based; conditions: HMVEC-LLy in vitro, different from HUVECs
T1 construct: endogenous in cells; host or cells: HMVEC-LLy (human primary lymphatic endothelial cells)

HMVEC-LLy cells [3] = test: Tube formation on Matrigel; format: cell-based, human; conditions: 24 hrs, n=2
Description: as §1

integrin β1 = target: T2, integrin β1 (Homo sapiens, UniProt P05556+P08648); test: Integrin binding of HMVEC-LLy cells on antibody-coated plates; format: cell-based; conditions: lamstatin 10 μg/ml, CP17 5 μM, 1 h
T2 construct: endogenous in cells; host or cells: HMVEC-LLy (human primary lymphatic endothelial cells)
T2 sequence (P05556 21-798): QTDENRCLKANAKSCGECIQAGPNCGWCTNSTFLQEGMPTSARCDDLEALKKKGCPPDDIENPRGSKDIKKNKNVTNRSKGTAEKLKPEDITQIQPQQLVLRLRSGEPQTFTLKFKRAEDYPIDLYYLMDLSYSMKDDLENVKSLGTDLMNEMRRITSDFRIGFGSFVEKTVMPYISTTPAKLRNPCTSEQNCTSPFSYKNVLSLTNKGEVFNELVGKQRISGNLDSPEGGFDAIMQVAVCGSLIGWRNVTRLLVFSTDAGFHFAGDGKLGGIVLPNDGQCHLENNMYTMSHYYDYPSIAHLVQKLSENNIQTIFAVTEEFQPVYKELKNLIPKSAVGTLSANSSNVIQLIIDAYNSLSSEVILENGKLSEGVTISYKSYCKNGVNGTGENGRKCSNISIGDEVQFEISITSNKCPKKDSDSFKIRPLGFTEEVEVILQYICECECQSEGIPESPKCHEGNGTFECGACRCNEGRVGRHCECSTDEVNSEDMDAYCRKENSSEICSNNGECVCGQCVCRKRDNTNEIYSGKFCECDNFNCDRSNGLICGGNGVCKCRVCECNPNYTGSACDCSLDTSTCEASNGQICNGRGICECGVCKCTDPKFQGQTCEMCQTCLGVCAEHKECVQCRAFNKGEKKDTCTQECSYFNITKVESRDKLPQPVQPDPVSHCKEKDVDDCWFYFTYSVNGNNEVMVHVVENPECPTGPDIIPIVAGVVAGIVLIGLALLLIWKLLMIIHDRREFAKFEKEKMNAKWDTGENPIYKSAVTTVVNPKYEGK
T2 sequence (P08648 42-894 limits assumed): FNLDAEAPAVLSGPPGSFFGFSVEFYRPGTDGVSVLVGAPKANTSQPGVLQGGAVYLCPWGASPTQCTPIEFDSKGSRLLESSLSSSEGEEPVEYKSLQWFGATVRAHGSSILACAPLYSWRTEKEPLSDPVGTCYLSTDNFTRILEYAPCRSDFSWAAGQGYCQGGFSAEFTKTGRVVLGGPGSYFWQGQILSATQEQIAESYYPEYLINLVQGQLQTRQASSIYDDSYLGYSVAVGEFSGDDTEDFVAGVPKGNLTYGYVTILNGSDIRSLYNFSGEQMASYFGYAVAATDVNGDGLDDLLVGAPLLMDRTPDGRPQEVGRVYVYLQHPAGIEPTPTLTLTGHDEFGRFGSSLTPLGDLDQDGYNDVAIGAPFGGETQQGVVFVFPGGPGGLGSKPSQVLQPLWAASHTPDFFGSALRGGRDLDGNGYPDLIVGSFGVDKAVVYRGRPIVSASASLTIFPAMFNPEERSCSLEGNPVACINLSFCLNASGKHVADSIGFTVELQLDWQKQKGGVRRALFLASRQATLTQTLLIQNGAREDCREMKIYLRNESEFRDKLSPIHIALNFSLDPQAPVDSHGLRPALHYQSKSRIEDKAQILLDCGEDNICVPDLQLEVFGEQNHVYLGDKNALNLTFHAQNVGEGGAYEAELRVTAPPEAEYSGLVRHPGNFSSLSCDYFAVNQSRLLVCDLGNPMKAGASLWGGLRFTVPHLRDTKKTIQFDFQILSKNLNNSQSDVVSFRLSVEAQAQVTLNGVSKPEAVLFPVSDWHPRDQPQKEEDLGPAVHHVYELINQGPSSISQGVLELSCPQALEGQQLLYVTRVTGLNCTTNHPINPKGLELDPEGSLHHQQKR
T2 sequence (P08648 895-1049 limits assumed): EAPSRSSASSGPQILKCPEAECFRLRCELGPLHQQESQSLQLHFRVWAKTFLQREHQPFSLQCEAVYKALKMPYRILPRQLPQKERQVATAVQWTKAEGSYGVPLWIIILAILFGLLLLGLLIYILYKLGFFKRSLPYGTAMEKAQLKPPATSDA
Description: (§2) Antibodies for integrin α5 (MAB1956Z; MAB1953Z), integrin β1 (MAB2253Z) and integrin β3 (MAB1957Z) (all Millipore, USA) were coated to 96 well tissue culture plates (Nunc, USA) at a concentration of 10 μg/mL overnight at 4° C. in sterile coating buffer (50 mM Na2CO3, 50 mM NaHCO3, pH 9.6). Plates then were blocked with sterile 1% BSA/PBS for 1 h at 37° C. and washed twice with EBM-2 MV (Lonza, Basel, Switzerland). MMVEC-LLy cells were carefully removed from culture flasks with non-enzymatic detachment solution (Trevigen, Md., USA) and washed twice with EBM-2 (Lonza, Basel, Switzerland). Volume was adjusted to a cell concentration of 50,000 cells/100 μL and divided into aliquots for treatment with recombinant lamstatin (10 μg/ml), CP17 (5 μM) or vehicle (1 nM EDTA, pH 3.5) only. Cells were then transferred to the antibody-coated plates and incubated for 1 h at 37° C. Wells were then washed with HANKS twice to remove unbound cells and fixed with 4% paraformaldehyde (in PBS) for 15 min at room temperature. Wells thereafter were photographed with an Olypmus CAMEDIA C-4000 camera mounted to an Olympus CK2 microscope. Pictures were divided into 25 segments and cells of 5 center-near quadrants were counted and averaged. […] Using a similar approach, the inventors observed no expression of integrin α4 on the surface of HMVEC-LLy cells (data not shown).

integrin α5 = target: T3, integrin α5 (Homo sapiens, UniProt P05556+P08648); test: as above; format: cell-based; conditions: lamstatin 10 μg/ml, CP17 5 μM, 1 h
T3 construct: endogenous in cells; host or cells: HMVEC-LLy (human primary lymphatic endothelial cells)
T3 sequence (P08648 42-894 limits assumed): as the sequence (P08648 42-894 limits assumed) above
T3 sequence (P08648 895-1049 limits assumed): as the sequence (P08648 895-1049 limits assumed) above
T3 sequence (P05556 21-798): as the sequence (P05556 21-798) above
Description: as §2

integrin β3 = target: T4, integrin β3 (Homo sapiens, UniProt P05106); test: as above; format: cell-based; conditions: lamstatin 10 μg/ml, CP17 5 μM, 1 h
T4 construct: endogenous in cells; host or cells: HMVEC-LLy (human primary lymphatic endothelial cells)
T4 sequence (P05106 27-788): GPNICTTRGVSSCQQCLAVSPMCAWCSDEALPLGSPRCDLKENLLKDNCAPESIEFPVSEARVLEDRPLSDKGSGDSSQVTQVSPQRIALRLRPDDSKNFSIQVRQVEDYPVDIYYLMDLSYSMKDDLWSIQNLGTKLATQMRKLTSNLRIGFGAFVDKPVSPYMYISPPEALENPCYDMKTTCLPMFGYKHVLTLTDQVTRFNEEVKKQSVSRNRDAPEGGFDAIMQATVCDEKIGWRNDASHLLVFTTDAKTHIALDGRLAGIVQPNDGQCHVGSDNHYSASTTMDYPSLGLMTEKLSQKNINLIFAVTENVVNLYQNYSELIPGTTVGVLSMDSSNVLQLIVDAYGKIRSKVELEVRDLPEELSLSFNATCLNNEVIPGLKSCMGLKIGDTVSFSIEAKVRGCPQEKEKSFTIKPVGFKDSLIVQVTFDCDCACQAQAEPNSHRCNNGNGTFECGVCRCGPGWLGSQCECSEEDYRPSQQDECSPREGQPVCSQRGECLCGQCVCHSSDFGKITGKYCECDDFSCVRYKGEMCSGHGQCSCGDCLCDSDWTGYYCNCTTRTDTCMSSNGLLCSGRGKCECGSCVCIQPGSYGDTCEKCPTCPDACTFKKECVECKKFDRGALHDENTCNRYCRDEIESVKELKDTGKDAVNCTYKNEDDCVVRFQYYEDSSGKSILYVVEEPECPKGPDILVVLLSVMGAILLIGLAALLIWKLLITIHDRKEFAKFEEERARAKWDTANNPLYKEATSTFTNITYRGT
T4 sequence (P06756 31-889 limits assumed, further chain): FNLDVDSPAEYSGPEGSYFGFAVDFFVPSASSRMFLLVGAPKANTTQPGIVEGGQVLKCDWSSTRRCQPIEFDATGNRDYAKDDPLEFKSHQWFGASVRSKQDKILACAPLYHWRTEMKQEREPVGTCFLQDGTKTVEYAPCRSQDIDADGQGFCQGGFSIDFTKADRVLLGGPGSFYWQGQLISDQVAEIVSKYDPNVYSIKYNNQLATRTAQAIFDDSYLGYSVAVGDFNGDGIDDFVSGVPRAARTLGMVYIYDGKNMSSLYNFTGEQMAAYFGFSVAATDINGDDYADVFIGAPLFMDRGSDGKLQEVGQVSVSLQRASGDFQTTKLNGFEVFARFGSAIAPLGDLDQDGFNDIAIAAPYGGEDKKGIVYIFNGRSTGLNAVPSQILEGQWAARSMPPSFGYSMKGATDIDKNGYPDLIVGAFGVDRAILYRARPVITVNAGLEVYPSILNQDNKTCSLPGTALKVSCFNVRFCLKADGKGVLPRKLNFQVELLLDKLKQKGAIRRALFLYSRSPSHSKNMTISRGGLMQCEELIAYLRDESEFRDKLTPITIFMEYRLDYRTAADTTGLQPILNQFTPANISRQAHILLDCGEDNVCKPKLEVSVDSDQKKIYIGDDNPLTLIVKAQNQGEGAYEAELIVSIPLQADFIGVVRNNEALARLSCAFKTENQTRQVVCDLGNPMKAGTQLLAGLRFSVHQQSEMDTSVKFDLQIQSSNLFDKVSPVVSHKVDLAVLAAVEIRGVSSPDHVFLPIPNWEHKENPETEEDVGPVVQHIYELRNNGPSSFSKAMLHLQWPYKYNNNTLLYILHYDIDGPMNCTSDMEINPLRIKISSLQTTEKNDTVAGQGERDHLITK
T4 sequence (P06756 891-1048 limits assumed, further chain): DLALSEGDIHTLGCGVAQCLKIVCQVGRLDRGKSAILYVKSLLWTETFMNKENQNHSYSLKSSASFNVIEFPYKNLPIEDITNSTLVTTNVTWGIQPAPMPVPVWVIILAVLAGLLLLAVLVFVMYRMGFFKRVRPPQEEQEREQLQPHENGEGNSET
Description: as §2

B1: lamstatin: NC1 domain of the α5 chain of collagen type IV; human amino acid sequence SEQ ID NO:1; recombinant (protein, listed as Homo sapiens)
chain: GFLITRHSQTTDAPQCPQGTLQVYEGFSLLYVQGNKRAHGQDLGTAGSCLRRFSTMPFMFCNINNVCNFASRNDYSYWLSTPEPMPMSMQPLKGQSIQPFISRCAVCEAPAVVIAVHSQTIQIPHCPQGWDSLWIGYSFMMHTSAGAEGSGQALASPGSCLEEFRSAPFIECHGRGTCNYYANSYSFWLATVDVSDMFSKPQSETLKAGDLRTRISRCQVCMKRT
Outer nodule cells (LAM)
  tube length: significantly inhibited
  tube number (tubes per square pixel): significantly inhibited
Fibroblasts (3567)
  cell viability (MTT): only lymphatic endothelial cells responded
HMVEC-LLy cells [1]
  migration towards a VEGFD gradient: 10000 RFU
[2]; 24 hrs, data not shown
  cell viability (MTT): reduced cell viability
[2]; increasing concentrations, 72 hrs
  cell viability (MTT): decreased cell viability
Integrins α5 and β1
  predominant integrins that mediate the binding of lymphatic endothelial cells: integrins α5 and β1
HMVEC-LLy cells [3]
  numbers of tube-like structures formed: reduce in a concentration related manner
Integrin β1
  cell binding in presence of monoclonal antibody against integrin β1: significantly inhibited cell binding
Integrin α5
  cell binding in presence of monoclonal antibody against integrin α5: significantly inhibited cell binding
Integrin β3
  cell binding in presence of monoclonal antibody against integrin β3: no effect on binding
